Experimental data published in US20260209321A1 (SINGAPORE HEALTH SERVICES PTE, published 2026).
Residue numbers refer to the chain shown, from its start. One block for each binder: values may come before it.

What was measured:
[1] = molecular target: T1, human TRPM4 expressed in transfected HEK 293 cells (human, UniProt Q8TD43 1-1214); assay: cell-based or functional assay
[2] = molecular target: T2, Peptide-biotin; assay: SPR Biacore 8K, purified IgG Fc-captured, Peptide-biotin analyte, 1:1 fit
T2 construct: also called antigen
Procedure: The affinity of purified antibody binding to Peptide-biotin was individually determined using a Surface Plasmon Resonance (SPR) biosensor, Biacore 8K (GE Healthcare). Antibodies were captured on the sensor chip through Fc capture method. Peptide-biotin was used as the analyte. The data of dissociation (kd) and association (ka) rate constants were obtained using Biacore 8K evaluation software. The equilibrium dissociation constants (KD) were calculated from the ratio of kd over ka.

[3] = molecular target: T2, Peptide-biotin; assay: SPR Biacore 8K affinity ranking; antibody Fc-captured, Peptide-biotin analyte, 1:1 fit
Procedure: For affinity ranking, antibodies were captured on the sensor chip through Fc capture method. Peptide-biotin was used as the analyte. The surface was regenerated before the injection of another antibody. The process was repeated until all antibodies are analyzed. The off-rates of antibodies were obtained from fitting the experimental data locally to 1:1 interaction model using the Biacore 8K evaluation software. The antibodies were ranked by their dissociation rate constants (off-rates, kd). Based on the ranking result, the top 3 clones were selected.
Humanized antibodies were generated by replacing the framework regions (FRs) from mouse M4M antibody with counterparts from human, while maintaining the antibody's complementarity-determining regions (CDRs) binding regions. The antibody binding affinity of the chimeric and humanized antibodies was assessed by surface plasmon resonance (SPR) as shown in Table 1. Antibody clone A1 is the chimeric antibody and antibody clones A2-7 are humanized antibodies. Based on the results obtained from SPR, humanized clone A2 has the strongest SPR signal. For affinity ranking, antibodies were captured on the sensor chip through Fc capture method. Peptide-biotin was used as the analyte. The surface was regenerated before the injection of another antibody. The process was repeated until all antibodies are analyzed. The off-rates of antibodies were obtained from fitting the experimental data locally to 1:1 interaction model using the Biacore 8K evaluation software. The antibodies were ranked by their dissociation rate constants (off-rates, kd). Based on the ranking result, the top humanized clones were selected. […] Bolded and underlined amino acids correspond to the back mutation sites in the framework regions.

[4] = molecular target: T1, human TRPM4 expressed in transfected …; assay: immunofluorescent staining of HEK 293 cells transfected with human TRPM4; colocalization with WGA (surface TRPM4)

T1 sequence (Q8TD43 whole entry): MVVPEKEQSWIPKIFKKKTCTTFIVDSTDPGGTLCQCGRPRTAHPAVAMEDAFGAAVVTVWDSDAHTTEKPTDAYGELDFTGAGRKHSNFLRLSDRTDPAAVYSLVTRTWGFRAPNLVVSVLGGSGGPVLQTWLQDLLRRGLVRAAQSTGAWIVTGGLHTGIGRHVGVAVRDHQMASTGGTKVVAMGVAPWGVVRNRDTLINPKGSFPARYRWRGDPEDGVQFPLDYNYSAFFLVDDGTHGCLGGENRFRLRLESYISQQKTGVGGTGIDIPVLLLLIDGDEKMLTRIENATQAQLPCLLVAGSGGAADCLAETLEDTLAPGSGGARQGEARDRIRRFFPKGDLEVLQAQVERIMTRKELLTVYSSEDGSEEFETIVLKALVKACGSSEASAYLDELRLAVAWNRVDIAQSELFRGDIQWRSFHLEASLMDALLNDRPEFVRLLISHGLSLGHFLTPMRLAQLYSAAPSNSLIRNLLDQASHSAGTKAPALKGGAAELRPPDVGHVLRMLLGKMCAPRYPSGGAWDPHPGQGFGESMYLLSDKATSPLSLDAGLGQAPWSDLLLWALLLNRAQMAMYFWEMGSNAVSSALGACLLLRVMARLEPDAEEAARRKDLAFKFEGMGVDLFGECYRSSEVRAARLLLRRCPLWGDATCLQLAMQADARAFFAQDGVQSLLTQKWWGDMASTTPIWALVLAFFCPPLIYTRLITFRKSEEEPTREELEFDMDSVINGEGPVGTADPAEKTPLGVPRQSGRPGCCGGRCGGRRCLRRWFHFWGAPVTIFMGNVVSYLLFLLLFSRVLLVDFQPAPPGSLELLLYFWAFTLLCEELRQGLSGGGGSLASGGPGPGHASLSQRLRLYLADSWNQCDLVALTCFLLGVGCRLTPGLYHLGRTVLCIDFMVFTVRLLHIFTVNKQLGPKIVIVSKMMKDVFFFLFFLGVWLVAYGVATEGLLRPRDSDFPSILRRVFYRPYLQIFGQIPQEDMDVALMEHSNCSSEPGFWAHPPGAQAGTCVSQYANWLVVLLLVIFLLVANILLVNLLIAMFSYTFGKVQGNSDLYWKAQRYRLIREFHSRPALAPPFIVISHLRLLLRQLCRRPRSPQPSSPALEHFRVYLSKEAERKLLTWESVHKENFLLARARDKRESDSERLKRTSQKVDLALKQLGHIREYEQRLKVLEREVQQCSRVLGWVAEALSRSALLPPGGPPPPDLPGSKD

B1: humanized anti-TRPM4 antibody clone A2 (VH1 + VL1) (antibody, human IgG1, kappa, V domains shown)
VH: QVQLQESGPGLVKPSQTLSLTCTVSGYSITSDYAWNWIRQHPGKGLEWIGYLSYSGVTSYNPSLKGRVTISVDTSKNQFSLKLSSVTAADTAVYYCARKGTYYRYEGSYWYFDVWGQGTTVTVSS
VL: DIQMTQSPSSLSASVGDRVTITCHANQNIDVWLSWYQQKPGKAPKLLIYKTSNLHTGVPSRFSGSGSGTDFTFTISSLQPEDIATYYCQQGQSYPLTFGGGTKLEIKR
notes: also called VH1 + VL1 (A2)
IC50 of dose-dependent inhibition of hypoxia-induced TRPM4 current increase (whole-cell patch clamp) [1]: 1.23 µg/mL
Kd [2]: 3.16 nM
koff [2]: 0.000605 s⁻¹
kon [2]: 191000 M⁻¹ s⁻¹
Kd [3]: 6.66 nM
koff [3]: 0.00166 s⁻¹
kon [3]: 249000 M⁻¹ s⁻¹

B7: humanized anti-TRPM4 antibody VH2 + VL4 (antibody, V domains shown)
VH: B1 VH with I49M, V72R
VL: B1 VL with K42N, F73L
notes: Full-length IgG
Kd [3]: 8.62 nM
koff [3]: 0.00185 s⁻¹
kon [3]: 215000 M⁻¹ s⁻¹

B8: humanized anti-TRPM4 antibody VH2 + VL3 (antibody, V domains shown)
VH: B1 VH with I49M, V72R
VL: B1 VL with K42N
notes: Full-length IgG
Kd [3]: 10.8 nM
koff [3]: 0.00219 s⁻¹
kon [3]: 203000 M⁻¹ s⁻¹

B12: humanized anti-TRPM4 antibody clone A6 (VH2 + VL1) (antibody, V domains shown)
VH: B1 VH with I49M, V72R
VL: B1 VL
notes: Full-length IgG, IgG1 heavy chain; also called VH2 + VL1 (A6)
Kd [2]: 4.02 nM
koff [2]: 0.000662 s⁻¹
kon [2]: 165000 M⁻¹ s⁻¹
Kd [3]: 10.6 nM
koff [3]: 0.00195 s⁻¹
kon [3]: 184000 M⁻¹ s⁻¹
binding result [4]: binds

B14: humanized anti-TRPM4 antibody clone A5 (VH1 + VL4) (antibody, V domains shown)
VH: B1 VH
VL: B1 VL with K42N, F73L
notes: Full-length IgG, IgG1 heavy chain; also called VH1 + VL4 (A5)
Kd [3]: 9.96 nM
koff [3]: 0.00217 s⁻¹
kon [3]: 217000 M⁻¹ s⁻¹
binding result [4]: binds

B15: humanized anti-TRPM4 antibody clone A7 (VH2 + VL2) (antibody, V domains shown)
VH: B1 VH with I49M, V72R
VL: B1 VL with F73L
notes: Full-length IgG, IgG1 heavy chain; also called VH2 + VL2 (A7)
Kd [3]: 11.5 nM
koff [3]: 0.00295 s⁻¹
kon [3]: 256000 M⁻¹ s⁻¹
binding result [4]: binds

B16: humanized anti-TRPM4 antibody clone A3 (VH1 + VL2) (antibody, V domains shown)
VH: B1 VH
VL: B1 VL with F73L
notes: Full-length IgG, IgG1 heavy chain; also called VH1 + VL2 (A3)
Kd [3]: 9.81 nM
koff [3]: 0.00321 s⁻¹
kon [3]: 327000 M⁻¹ s⁻¹
binding result [4]: binds

More lines, in order of falling Kd [3], values ahead:

Kd [2]: 3.18 nM
koff [2]: 0.00062 s⁻¹
kon [2]: 195000 M⁻¹ s⁻¹
Kd [3]: 7 nM
koff [3]: 0.00177 s⁻¹
kon [3]: 252000 M⁻¹ s⁻¹
B13: humanized anti-TRPM4 antibody clone A4 (VH1 + VL3) (antibody, V domains shown)
VH: B1 VH
VL: B1 VL with K42N
notes: Full-length IgG, IgG1 heavy chain; also called VH1 + VL3 (A4)
binding result [4]: binds

Kd [2]: 1.74 nM
koff [2]: 0.000543 s⁻¹
kon [2]: 312000 M⁻¹ s⁻¹
Kd [3]: 4.61 nM
koff [3]: 0.0015 s⁻¹
kon [3]: 325000 M⁻¹ s⁻¹
B17: anti-TRPM4 chimeric antibody clone A1 (VH + VL) (antibody, V domains shown)
VH: QVQLQESGPGLVKPSQSLSLTCTVTGYSITSDYAWNWIRQFPGNKLQWMGYLSYSGVTSYNPSLKGRISITRDTSKNQFFLQLSSVTPEDTATYYCARKGTYYRYEGSYWYFDVWGAGTTVTVSS
VL: DIQMNQSPSSLSASLGDTITITCHANQNIDVWLSWYQQKPGNVPKLLIYKTSNLHTGVPSRFSGSGSGTDFTLTISSLQPEDIATYYCQQGQSYPLTFGGGTKLEIK
notes: also called VH + VL (A1)
binding result [4]: binds

Kd [3]: 4.53 nM
koff [3]: 0.00198 s⁻¹
kon [3]: 438000 M⁻¹ s⁻¹
B5: humanized anti-TRPM4 antibody VH3 + VL2 (antibody, V domains shown)
VH: B1 VH with E47Q, I49M, V68I, V72R
VL: B1 VL with F73L
notes: Full-length IgG

Kd [3]: 4.47 nM
koff [3]: 0.00136 s⁻¹
kon [3]: 305000 M⁻¹ s⁻¹
B10: humanized anti-TRPM4 antibody VH4 + VL1 (antibody, V domains shown)
VH: B1 VH with E47Q, I49M, V68I, V72R, S80F
VL: B1 VL
notes: Full-length IgG

Kd [3]: 4.43 nM
koff [3]: 0.00201 s⁻¹
kon [3]: 454000 M⁻¹ s⁻¹
B4: humanized anti-TRPM4 antibody VH4 + VL4 (antibody, V domains shown)
VH: B1 VH with E47Q, I49M, V68I, V72R, S80F
VL: B1 VL with K42N, F73L
notes: Full-length IgG

Kd [3]: 4.4 nM
koff [3]: 0.0018 s⁻¹
kon [3]: 409000 M⁻¹ s⁻¹
B6: humanized anti-TRPM4 antibody VH3 + VL3 (antibody, V domains shown)
VH: B1 VH with E47Q, I49M, V68I, V72R
VL: B1 VL with K42N
notes: Full-length IgG

Kd [3]: 4.37 nM
koff [3]: 0.00132 s⁻¹
kon [3]: 303000 M⁻¹ s⁻¹
B2: humanized anti-TRPM4 antibody VH4 + VL2 (antibody, V domains shown)
VH: B1 VH with E47Q, I49M, V68I, V72R, S80F
VL: B1 VL with F73L
notes: Full-length IgG

Kd [3]: 4.36 nM
koff [3]: 0.00149 s⁻¹
kon [3]: 342000 M⁻¹ s⁻¹
B11: humanized anti-TRPM4 antibody VH3 + VL1 (antibody, V domains shown)
VH: B1 VH with E47Q, I49M, V68I, V72R
VL: B1 VL
notes: Full-length IgG

Kd [3]: 4.32 nM
koff [3]: 0.00143 s⁻¹
kon [3]: 332000 M⁻¹ s⁻¹
B9: humanized anti-TRPM4 antibody VH4 + VL3 (antibody, V domains shown)
VH: B1 VH with E47Q, I49M, V68I, V72R, S80F
VL: B1 VL with K42N
notes: Full-length IgG

Kd [3]: 2.22 nM
koff [3]: 0.00135 s⁻¹
kon [3]: 608000 M⁻¹ s⁻¹
B3: humanized anti-TRPM4 antibody VH3 + VL4 (antibody, V domains shown)
VH: B1 VH with E47Q, I49M, V68I, V72R
VL: B1 VL with K42N, F73L
notes: Full-length IgG
